B1: ycdT transcript (-36 to +20) (ssRNA)
RNA: GGGAAAGGGAUCUACAACCUACAGAUUGGUGUAGCUUUAUGGAAAAAGACUAUUUGAG
B2: ydeH transcript (-29 to +25) (ssRNA)
RNA: GGGCACAAGGAACUGUGAAAAAGGAGUGGCAAUGAUCAAGAAGACAACGGAAAUUG

Molecular target: CsrA-His6 (Escherichia coli, UniProt P69913 1-61)
Experiment: EMSA

Sequence of CsrA-His6 (P69913 whole entry): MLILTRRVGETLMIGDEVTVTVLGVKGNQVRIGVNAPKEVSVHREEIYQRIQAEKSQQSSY

Row | Binder | Kd [nM]
1 | B1 | 2.6 ± 0.3
2 | B2 | 2.3 ± 0.1

— PMC2735045
